Measurements published in article PMC2699511.

Molecular target: GST-Vif wild type (HIV-1, UniProt P69723 1-192)
Test: EMSA

Sequence of GST-Vif wild type (P69723 whole entry): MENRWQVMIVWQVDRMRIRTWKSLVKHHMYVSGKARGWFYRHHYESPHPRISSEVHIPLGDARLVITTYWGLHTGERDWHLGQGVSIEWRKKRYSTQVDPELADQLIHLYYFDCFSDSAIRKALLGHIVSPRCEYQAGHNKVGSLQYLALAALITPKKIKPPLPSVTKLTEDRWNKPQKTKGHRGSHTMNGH

## AAAAAAAAAAAAAAAAAAAAAAAAAAAAAAAAAAAAAAAA (ssRNA) [poly(rA40)]
  binding result: binds
